Experimental data published in doi:10.1101/2022.11.16.516715 (bioRxiv, 2022).

Molecular target: the molecule itself
Assay: cryo-EM structure

B1: RsmA (natural protein)
chain: not shown
B1: binds.
